Data as given in publication PMC6883840 (Proceedings of the National Academy of Sciences of the …, 2019).

T1: ThrB (homoserine kinase) (Escherichia coli, UniProt P00547)
T1 sequence (P00547 1-310): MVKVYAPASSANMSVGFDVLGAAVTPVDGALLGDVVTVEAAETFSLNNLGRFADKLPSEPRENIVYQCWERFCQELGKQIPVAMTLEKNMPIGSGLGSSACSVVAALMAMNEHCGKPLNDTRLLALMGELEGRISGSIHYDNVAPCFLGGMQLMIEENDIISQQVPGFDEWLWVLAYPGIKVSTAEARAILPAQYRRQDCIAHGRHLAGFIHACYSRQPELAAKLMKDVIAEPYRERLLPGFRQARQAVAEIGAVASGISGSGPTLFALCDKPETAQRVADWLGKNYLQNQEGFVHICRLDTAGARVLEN

B1: SerC (Escherichia coli K-12) (protein)
chain: AQIFNFSSGPAMLPAEVLKQAQQELRDWNGLGTSVMEVSHRGKEFIQVAEEAEKDFRDLLNVPSNYKVLFCHGGGRGQFAAVPLNILGDKTTADYVDAGYWAASAIKEAKKYCTPNVFDAKVTVDGLRAVKPMREWQLSDNAAYMHYCPNETIDGIAIDETPDFGADVVVAADFSSTILSRPIDVSRYGVIYAGAQKNIGPAGLTIVIVREDLLGKANIACPSILDYSILNDNGSMFNTPPTFAWYLSGLVFKWLKANGGVAEMDKINQQKAELLYGVIDNSDFYRNDVAKANRSRMNVPFQLADSALDKLFLEESFAAGLHALKGHRVVGGMRASIYNAMPLEGVKALTDFMVEFERRHG

Columns and labels:
ThrB (homoserine kinase) = molecular target: T1, ThrB (homoserine kinase); experiment: […]-NMR of ATP to ADP conversion; assay type: biochemical; conditions: ATP hydrolysis without second substrate; 37 °C, 24 h
purified protein = substrate: N[C@H](C(=O)O)[C@H](O)CO; experiment: purified protein; conditions: reverse direction: 4-hydroxythreonine to (3R)-3,4-dihydroxy-2-oxobutanoate

Molecule | 31P-NMR of ATP to ADP conversion (ThrB (homoserine kinase)) | Km (purified protein) | kcat (purified protein)
Nc1ncnc2c1ncn2[C@@H]1O[C@H](COP(=O)(O)OP(=O)(O)OP(=O)(O)O)[C@@H](O)[C@H]1O [ATP] | hydrolysis of ATP in the active site of ThrB in the absence of a second substrate |  | 
B1 |  | 2600 ± 700 µM | 2.0 ± 0.1 × 10^-5 s^-1
